Data from publication PMC11951046.

Key:
[1] = biological target: Cyt2Aa2 protoxin (Bacillus thuringiensis subsp. darmstadiensis); experiment: SDS-PAGE of unheated sample with immunodetection
[2] = biological target: activated Cyt2Aa2 protein (chymotrypsin-activated) (Bacillus thuringiensis subsp. darmstadiensis); experiment: SDS-PAGE ladder pattern of unheated sample with immunodetection

Substance	stoichiometry N [1]	stoichiometry N [2]
Cyt2Aa2 protoxin (natural protein)	2	
activated Cyt2Aa2 protein (chymotrypsin-activated) (natural protein)		> 10
